Assay results as given in patent US20140018297A1 (Novo Nordisk, published 2014).

T1: Fluorescent labelled FVIII (Oregon green-FVIII) (UniProt P00451 20-2351, limits assumed, Oregon green label)
T1 sequence (looked up): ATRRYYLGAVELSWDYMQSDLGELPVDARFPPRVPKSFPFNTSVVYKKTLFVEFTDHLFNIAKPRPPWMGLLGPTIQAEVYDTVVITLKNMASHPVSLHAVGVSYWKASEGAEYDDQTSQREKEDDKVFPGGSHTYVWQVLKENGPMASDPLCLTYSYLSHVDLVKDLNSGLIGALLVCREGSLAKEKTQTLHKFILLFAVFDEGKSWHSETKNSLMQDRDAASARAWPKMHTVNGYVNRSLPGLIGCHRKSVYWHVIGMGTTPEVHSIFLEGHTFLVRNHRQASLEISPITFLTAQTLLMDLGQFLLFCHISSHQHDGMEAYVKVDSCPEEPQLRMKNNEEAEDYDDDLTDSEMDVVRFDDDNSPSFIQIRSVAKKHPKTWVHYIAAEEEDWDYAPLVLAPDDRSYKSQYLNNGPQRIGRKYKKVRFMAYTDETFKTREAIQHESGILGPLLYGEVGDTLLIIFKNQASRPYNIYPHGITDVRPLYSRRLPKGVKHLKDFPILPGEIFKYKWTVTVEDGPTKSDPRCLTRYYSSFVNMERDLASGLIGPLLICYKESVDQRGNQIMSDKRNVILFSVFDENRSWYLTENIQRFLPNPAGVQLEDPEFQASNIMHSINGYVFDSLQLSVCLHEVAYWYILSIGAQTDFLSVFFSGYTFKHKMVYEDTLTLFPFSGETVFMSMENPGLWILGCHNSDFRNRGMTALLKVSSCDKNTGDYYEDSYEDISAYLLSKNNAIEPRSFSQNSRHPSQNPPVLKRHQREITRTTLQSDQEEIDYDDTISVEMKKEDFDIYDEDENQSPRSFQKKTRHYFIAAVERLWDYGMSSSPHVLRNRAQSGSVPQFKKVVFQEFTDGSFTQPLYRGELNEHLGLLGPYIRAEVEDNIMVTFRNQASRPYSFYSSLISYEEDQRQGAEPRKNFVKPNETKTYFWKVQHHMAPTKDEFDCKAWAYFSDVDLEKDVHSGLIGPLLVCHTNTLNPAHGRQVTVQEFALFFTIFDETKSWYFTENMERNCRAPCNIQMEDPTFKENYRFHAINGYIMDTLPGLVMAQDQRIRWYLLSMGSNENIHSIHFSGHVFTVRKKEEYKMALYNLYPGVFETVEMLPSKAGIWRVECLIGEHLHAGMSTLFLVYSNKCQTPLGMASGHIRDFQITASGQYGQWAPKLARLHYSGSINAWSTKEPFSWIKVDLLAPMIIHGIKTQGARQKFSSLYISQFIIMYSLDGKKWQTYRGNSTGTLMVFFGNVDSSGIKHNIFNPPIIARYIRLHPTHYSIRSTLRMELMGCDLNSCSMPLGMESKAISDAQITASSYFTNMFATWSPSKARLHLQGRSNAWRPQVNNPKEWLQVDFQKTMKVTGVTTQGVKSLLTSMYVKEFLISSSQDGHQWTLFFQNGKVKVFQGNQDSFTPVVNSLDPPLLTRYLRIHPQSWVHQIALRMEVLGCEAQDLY

T2: FVIII (as used in the competition ELISA of Example 21; form not stated) (UniProt P00451 20-2351, limits assumed)
T2 sequence (looked up): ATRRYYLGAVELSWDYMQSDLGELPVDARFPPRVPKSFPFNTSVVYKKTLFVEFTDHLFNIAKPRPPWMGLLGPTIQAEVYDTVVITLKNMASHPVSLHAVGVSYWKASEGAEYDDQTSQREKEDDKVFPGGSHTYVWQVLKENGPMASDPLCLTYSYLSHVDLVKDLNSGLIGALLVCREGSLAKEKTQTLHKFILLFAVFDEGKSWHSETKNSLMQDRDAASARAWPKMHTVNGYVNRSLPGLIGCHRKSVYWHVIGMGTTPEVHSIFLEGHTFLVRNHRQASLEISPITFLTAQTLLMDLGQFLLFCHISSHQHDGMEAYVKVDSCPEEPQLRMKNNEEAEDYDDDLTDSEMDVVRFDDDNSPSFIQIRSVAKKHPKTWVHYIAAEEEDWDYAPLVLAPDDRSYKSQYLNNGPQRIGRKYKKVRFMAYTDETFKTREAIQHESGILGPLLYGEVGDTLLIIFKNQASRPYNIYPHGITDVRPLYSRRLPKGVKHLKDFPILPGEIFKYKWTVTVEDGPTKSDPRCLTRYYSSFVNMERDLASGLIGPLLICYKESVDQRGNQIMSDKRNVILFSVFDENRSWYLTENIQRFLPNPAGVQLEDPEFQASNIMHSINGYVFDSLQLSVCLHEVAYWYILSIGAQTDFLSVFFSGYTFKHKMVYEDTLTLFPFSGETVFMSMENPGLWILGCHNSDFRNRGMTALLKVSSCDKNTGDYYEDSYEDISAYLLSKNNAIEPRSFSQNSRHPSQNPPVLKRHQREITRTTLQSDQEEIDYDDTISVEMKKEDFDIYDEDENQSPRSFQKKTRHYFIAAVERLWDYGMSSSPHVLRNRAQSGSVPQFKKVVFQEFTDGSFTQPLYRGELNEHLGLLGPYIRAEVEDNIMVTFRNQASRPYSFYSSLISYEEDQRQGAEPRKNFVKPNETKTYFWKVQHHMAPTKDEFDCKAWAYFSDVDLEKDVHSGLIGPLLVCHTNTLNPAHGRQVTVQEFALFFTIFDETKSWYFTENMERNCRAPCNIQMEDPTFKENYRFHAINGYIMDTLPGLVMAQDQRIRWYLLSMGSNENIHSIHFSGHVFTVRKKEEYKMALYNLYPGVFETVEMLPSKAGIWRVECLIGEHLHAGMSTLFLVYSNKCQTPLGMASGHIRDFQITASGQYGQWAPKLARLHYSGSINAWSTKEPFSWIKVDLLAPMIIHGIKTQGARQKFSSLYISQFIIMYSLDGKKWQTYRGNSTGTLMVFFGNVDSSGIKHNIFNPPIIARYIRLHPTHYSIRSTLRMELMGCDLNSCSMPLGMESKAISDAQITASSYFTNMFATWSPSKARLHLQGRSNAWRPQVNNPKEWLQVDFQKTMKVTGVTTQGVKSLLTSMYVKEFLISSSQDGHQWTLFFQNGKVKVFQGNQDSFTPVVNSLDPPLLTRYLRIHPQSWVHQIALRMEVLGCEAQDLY


Experiments:
[1] = molecular target: T1, Fluorescent labelled FVIII (Oregon …); assay: cell-based or functional assay
[2] = molecular target: T2, FVIII (as used in the competition ELISA …); assay: competition ELISA; competitor coated human VWF; FVIII 1 nM pre-incubated with the fragment
Experimental: In order to investigate the binding of the different VWF fragments to FVIII the following method is used. Briefly, human VWF is coated in a microtiterplate and incubated overnight at 4° C. After blocking, a solution with pre-incubated FVIII (1 nM) and VWF/VWF-fragment is added to the plate, followed by detection with biotinylated anti FVIII antibody and streptavidin-peroxidase S-POD (1:20000). The absorbance is measured at 450/620 nm.

Row | Binder | IC50 (nM), FVIII uptake in dendritic cells [1] | IC50 [2]
1 | VWF(764-1041)-ALA-HPC4 monomer (other, also called 2306; TIL′/E′/VWD3 II) SLSCRPPMVKLVCPADNLRAEGLECTKTCQNYDLECMSMGCVSGCLCPPGMVRHENRCVALERCPCFHQGKEYAPGETVKIGCNTCVCQDRKWNCTDHVCDATCSTIGMAHYLTFDGLKYLFPGECQYVLVQDYCGSNPGTFRILVGNKGCSHPSVKCKKRVTILVEGGEIELFDGEVNVKRPMKDETHFEVVESGRYIILLLGKALSVVWDRHLSISVVLKQTYQEKVCGLCGNFDGIQNNDLTSSNLQVEEDPVDFGNSWKVSSQCADTRKVPLDSALAEDQVDPRLIDGK | 570 nM | 2200 nM
2 | VWF(764-1045)-ALA-HPC4 monomer (other, also called TIL′/E′/VWD3 III) SLSCRPPMVKLVCPADNLRAEGLECTKTCQNYDLECMSMGCVSGCLCPPGMVRHENRCVALERCPCFHQGKEYAPGETVKIGCNTCVCQDRKWNCTDHVCDATCSTIGMAHYLTFDGLKYLFPGECQYVLVQDYCGSNPGTFRILVGNKGCSHPSVKCKKRVTILVEGGEIELFDGEVNVKRPMKDETHFEVVESGRYIILLLGKALSVVWDRHLSISVVLKQTYQEKVCGLCGNFDGIQNNDLTSSNLQVEEDPVDFGNSWKVSSQCADTRKVPLDSSPATALAEDQVDPRLIDGK |  | 2000 nM
